Test results reported in paper PMC6276866 (Circulation, 2018).

B1: recombinant B56α protein (natural protein)
chain: not shown

What was measured:
recombinant B56α protein = target: B1; test: SPR
[1] = target: purified recombinant AnkB, wild type (SPR) (UniProt Q01484-2 1-1872); test: SPR

Chain of recombinant B56α protein (Q15172 whole entry): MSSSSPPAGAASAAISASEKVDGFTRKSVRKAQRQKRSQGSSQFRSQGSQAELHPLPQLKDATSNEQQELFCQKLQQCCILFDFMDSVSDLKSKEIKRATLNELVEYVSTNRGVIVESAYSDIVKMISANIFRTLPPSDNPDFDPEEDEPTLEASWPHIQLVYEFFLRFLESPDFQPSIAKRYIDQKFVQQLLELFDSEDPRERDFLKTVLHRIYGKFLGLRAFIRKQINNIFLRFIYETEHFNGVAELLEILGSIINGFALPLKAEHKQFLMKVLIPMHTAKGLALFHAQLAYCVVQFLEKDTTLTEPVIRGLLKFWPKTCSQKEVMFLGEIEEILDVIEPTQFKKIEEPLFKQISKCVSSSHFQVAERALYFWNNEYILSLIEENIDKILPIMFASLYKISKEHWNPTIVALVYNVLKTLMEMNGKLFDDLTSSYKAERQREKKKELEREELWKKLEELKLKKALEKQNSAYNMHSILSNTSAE

| Kd (recombinant B56α protein) [µM] | Kd [1] [µM] | Binder |
| --- | --- | --- |
| 22.2 ± 6.42 | – | purified recombinant mutant AnkB (p.Q1283H) (SPR) (natural protein) MMNEDAAQKSDSGEKFNGSSQRRKRPKKSDSNASFLRAARAGNLDKVVEYLKGGIDINTCNQNGLNALHLAAKEGHVGLVQELLGRGSSVDSATKKGNTALHIASLAGQAEVVKVLVKEGANINAQSQNGFTPLYMAAQENHIDVVKYLLENGANQSTATEDGFTPLAVALQQGHNQAVAILLENDTKGKVRLPALHIAARKDDTKSAALLLQNDHNADVQSKMMVNRTTESGFTPLHIAAHYGNVNVATLLLNRGAAVDFTARNGITPLHVASKRGNTNMVKLLLDRGGQIDAKTRDGLTPLHCAARSGHDQVVELLLERGAPLLARTKNGLSPLHMAAQGDHVECVKHLLQHKAPVDDVTLDYLTALHVAAHCGHYRVTKLLLDKRANPNARALNGFTPLHIACKKNRIKVMELLVKYGASIQAITESGLTPIHVAAFMGHLNIVLLLLQNGASPDVTNIRGETALHMAARAGQVEVVRCLLRNGALVDARAREEQTPLHIASRLGKTEIVQLLLQHMAHPDAATTNGYTPLHISAREGQVDVASVLLEAGAAHSLATKKGFTPLHVAAKYGSLDVAKLLLQRRAAADSAGKNGLTPLHVAAHYDNQKVALLLLEKGASPHATAKNGYTPLHIAAKKNQMQIASTLLNYGAETNIVTKQGVTPLHLASQEGHTDMVTLLLDKGANIHMSTKSGLTSLHLAAQEDKVNVADILTKHGADQDAHTKLGYTPLIVACHYGNVKMVNFLLKQGANVNAKTKNGYTPLHQAAQQGHTHIINVLLQHGAKPNATTANGNTALAIAKRLGYISVVDTLKVVTEEVTTTTTTITEKHKLNVPETMTEVLDVSDEEGDDTMTGDGGEYLRPEDLKELGDDSLPSSQFLDGMNYLRYSLEGGRSDSLRSFSSDRSHTLSHASYLRDSAVMDDSVVIPSHQVSTLAKEAERNSYRLSWGTENLDNVALSSSPIHSGFLVSFMVDARGGAMRGCRHNGLRIIIPPRKCTAPTRVTCRLVKRHRLATMPPMVEGEGLASRLIEVGPSGAQFLGPVIVEIPHFAALRGKERELVVLRSENGDSWKEHFCDYTEDELNEILNGMDEVLDSPEDLEKKRICRIITRDFPQYFAVVSRIKQDSNLIGPEGGVLSSTVVPQVQAVFPEGALTKRIRVGLQAQPMHSELVKKILGNKATFSPIVTLEPRRRKFHKPITMTIPVPKASSDVMLNGFGGDAPTLRLLCSITGGTTPAQWEDITGTTPLTFVNECVSFTTNVSARFWLIDCRQIQESVTFASHVYREIICVPYMAKFVVFAKSHDPIEARLRCFCMTDDKVDKTLEQQENFAEVARSRDVEVLEGKPIYVDCFGNLVPLTKSGQHHIFSFFAFKENRLPLFVKVRDTTQEPCGRLSFMKEPKSTRGLVHQAICNLNITLPIYTKESESDQEQEEEIDMTSEKNPQDEQERIEERLAYIADHLGFSWTELARELDFTEEQIHQIRIENPNSLQDQSHALLKYWLERDGKHATDTNLVECLTKINRMDIVHLMETNTEPLQERISHSYAEIEQTITLDHSEGFSVLQEELCTAQHKQKEEQAVSKESETCDHPPIVSEEDISVGYSTFQDGVPKTEGDSSATALFPQTHKEQVQQDFSGKMQDLPEESSLEYQQEYFVTTPGTETSETQKAMIVPSSPSKTPEEVSTPAEEEKLYLQTPTSSERGGSPIIQEPEEPSEHREESSPRKTSLVIVESADNQPETCERLDEDAAFEKGDDMPEIPPETVTEEEYIDEHGHTVVKKVTRKIIRRYVSSEGTEKEEIMVQGMPQEPVNIEEGDGYSKVIKRVVLKSDTEQSEDNNE |
| – | 1.64 ± 0.05 | B1 |
